Consider one protein from article PMC6105367 (The FEBS journal, 2018).

The series concerns the molecule itself. The experiment in a line: negative-stain electron microscopy.

B1: full-length zebrafish ASC, recombinant, His-NusA-GB1 tag cleaved off (natural protein, UniProt Q9I9N6 1-203, looked up)
chain: MAESFKEHLQEAFEDLGADNLRKFKSKLGDRRQEPRVTKSAIEKLKDEIDLADLMVGVFTSKDAVSVTVEILRAIKCNAVADDLLRNTGQSESKGALSDESKCASSKAVSKVAFSKVNFIDEHWKELIDRVNNVDPILDILRQKKVITNEDYCTIRNKETPQKKMRELLTGPITCAGNKGKEVLYDALRESNKFLMDDLEDAE
On to B1, for which the binding result is given as “binds”.
